Reference: publication doi:10.1101/2023.09.15.558033

B1: human malate dehydrogenase (hMDH), acid-denatured (enzyme)
chain: AKVAVLGASGGIGQPLSLLLKNSPLVSRLTLYDIAHTPGVAADLSHIETKAAVKGYLGPEQLPDCLKGCDVVVIPAGVPRKPGMTRDDLFNTNATIVATLTAACAQHCPEAMICVIANPVNSTIPITAEVFKKHGVYNPNKIFGVTTLDIVRANTFVAELKGLDPARVNVPVIGGHAGKTIIPLISQCTPKVDFPQDQLTALTGRIQEAGTEVVKAKAGAGSATLSMAYAGARFVFSLVDAMNGKEGVVECSFVKSQETECTYFSTPLLLGKKGIEKNLGIGKVSSFEEKMISDAIPELKASIKKGEDFVKTLK

Tests used:
[1] = biological target: Hsp60 C-terminal deletion mutant Δ522 (terminal 26 residues removed) (human); assay: cryo-EM structure
[2] = biological target: Hsp60 C-terminal deletion mutant Δ532 (terminal 16 residues removed) (human)

Molecule | stoichiometry N [1] | refolding of denatured hMDH (hMDH activity), loss against wild-type Hsp60 [2] [%]
Hsp60 C-terminal deletion mutant Δ522 (terminal 26 residues removed) (domain or fragment) | 14 | –
B1 | – | 27
